Like-named read-outs stand apart in the source and are kept apart here.
Assays:
[1] = biological target: integrin β3 transmembrane-cytoplasmic domain (TM/tail, residues 685-762) embedded in Nanodiscs (UniProt P05106); test: FRET or BRET
[2] = biological target: integrin β3 transmembrane-cytoplasmic domain (TM/tail, residues 685-762) embedded in Nanodiscs (UniProt P05106); test: FRET or BRET; remark: listed apart in the source

Sequence of UniProt P05106 (P05106 711-788): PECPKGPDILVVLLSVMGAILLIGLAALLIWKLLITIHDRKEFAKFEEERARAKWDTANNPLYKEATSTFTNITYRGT

- Kd [1]: 580 nM
- Kd [2]: 740 nM
- fold increase in affinity over 50% DMPS Nanodiscs without the integrin tail [2]: 2 fold
Substance: talin-1 head domain (THD) I398C, Uniblue A labelled (from UniProt P26039 1-433) (domain or fragment)
